Patent publication US20110052677A1 (RESEARCH DEVELOPMENT FOUNDATION, published 2011)

Biological target: T1, native SRPX2 of tEnd1.V^high mouse angiogenic endothelioma cells (mouse, UniProt Q8R054 26-468)
T1 construct: Endogenous protein from a mouse endothelioma cell line; also called native SPRXb 2; Sushi repeat-containing protein, X-linked, 2
T1 sequence (looked up): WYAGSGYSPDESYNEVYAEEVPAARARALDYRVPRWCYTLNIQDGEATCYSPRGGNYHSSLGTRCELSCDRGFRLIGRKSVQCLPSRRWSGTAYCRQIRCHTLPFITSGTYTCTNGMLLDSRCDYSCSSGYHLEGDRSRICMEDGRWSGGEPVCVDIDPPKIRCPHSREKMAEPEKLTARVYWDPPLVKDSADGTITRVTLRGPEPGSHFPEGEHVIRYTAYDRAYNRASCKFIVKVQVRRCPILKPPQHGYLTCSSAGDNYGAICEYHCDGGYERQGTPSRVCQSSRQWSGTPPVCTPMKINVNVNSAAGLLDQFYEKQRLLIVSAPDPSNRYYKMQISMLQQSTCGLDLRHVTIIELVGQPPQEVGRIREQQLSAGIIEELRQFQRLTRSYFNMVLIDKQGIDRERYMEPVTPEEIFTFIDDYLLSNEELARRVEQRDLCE
Test: anti-uPAR immunoprecipitate from tEnd1.V^high lysate, blot re-probed with rabbit anti-SRPX2 antibody
Description: Pull down assay of SRPX2 by uPAR—The tEnd1.V^high cells were cell surface biotinylated (0.5 mg/ml of biotin in DPBS) for 15 min, blocked with 10% FCS in PBS and lysed in lysis buffer with addition of 0.5% CHAPS and proteinase inhibitors (Sigma). Pre-clearing was preformed subsequently with the protein G beads (40 μl beads/1 ml lysate) (Protein G Sepharose 4 fast flow, General Electrics) for 3×5 min at RT. Immuno-precipitation was performed by adding sheep anti-uPAR antibodies, precipitated with protein G beads and eluted with a lysis buffer. Immunoblots were preformed with sheep anti-uPAR antibodies and detected by anti-sheep HRP labeled antibodies and visualized by ECL.

binding result: binds
B1: vascular urokinase-type plasminogen activator receptor (uPAR) of tEnd1.V^high cells (receptor, mouse, UniProt P35456 24-298, looked up)
chain: LQCMQCESNQSCLVEECALGQDLCRTTVLREWQDDRELEVVTRGCAHSEKTNRTMSYRMGSMIISLTETVCATNLCNRPRPGARGRAFPQGRYLECASCTSLDQSCERGREQSLQCRYPTEHCIEVVTLQSTERSLKDEDYTRGCGSLPGCPGTAGFHSNQTFHFLKCCNYTHCNGGPVLDLQSFPPNGFQCYSCEGNNTLGCSSEEASLINCRGPMNQCLVATGLDVLGNRSYTVRGCATASWCQGSHVADSFPTHLNVSVSCCHGSGCNSPTG
notes: whole, on cells; Native GPI-linked receptor, immunoprecipitated from cell lysate after cell-surface biotinylation; Species is inferred from the mouse cell line; also called vascular uPAR; native uPAR
